To fix the notation:
B1: Example 159, conjugate of anti-mesothelin antibody MF-Ta (antibody, human IgG1, lambda, V domains shown)
VH: QVELVQSGAEVKKPGESLKISCKGSGYSFTSYWIGWVRQAPGKGLEWMGIIDPGDSRTRYSPSFQGQVTISADKSISTAYLQWSSLKASDTAMYYCARGQLYGGTYMDGWGQGTLVTVSS
VL: DIALTQPASVSGSPGQSITISCTGTSSDIGGYNSVSWYQQHPGKAPKLMIYGVNNRPSGVSNRFSGSKSGNTASLTISGLQAEDEADYYCSSYDIESATPVFGGGTKLTVLG
modifications: toxophore-linker, coupling residue not stated
B2: Example 377, conjugate of anti-mesothelin antibody MF-Ta (antibody, human IgG1, lambda, V domains shown)
VH: B1 VH
VL: B1 VL
modifications: toxophore-linker on Cys sulfur, sites not given
B3: Example 367, conjugate of anti-mesothelin antibody MF-Ta (antibody, human IgG1, lambda, V domains shown)
VH: B1 VH
VL: B1 VL
modifications: toxophore-linker on Lys NH, sites not given
B4: Example 368, conjugate of anti-mesothelin antibody MF-Ta (antibody, human IgG1, lambda, V domains shown)
VH: B1 VH
VL: B1 VL
modifications: toxophore-linker on Lys NH, sites not given
B5: Example 380 (Diastereomer 2), conjugate of anti-mesothelin antibody MF-Ta (antibody, human IgG1, lambda, V domains shown)
VH: B1 VH
VL: B1 VL
modifications: toxophore-linker on Lys NH, sites not given
B6: Example 379 (Diastereomer 1), conjugate of anti-mesothelin antibody MF-Ta (antibody, human IgG1, lambda, V domains shown)
VH: B1 VH
VL: B1 VL
modifications: toxophore-linker on Lys NH, sites not given
B7: Example 369, conjugate of anti-mesothelin antibody MF-Ta (antibody, human IgG1, lambda, V domains shown)
VH: B1 VH
VL: B1 VL
modifications: toxophore-linker on Lys NH, sites not given
B8: Example 378, conjugate of anti-mesothelin antibody MF-Ta (antibody, human IgG1, lambda, V domains shown)
VH: B1 VH
VL: B1 VL
modifications: toxophore-linker on Lys NH, sites not given
B9: Example 366, conjugate of anti-mesothelin antibody MF-Ta (antibody, human IgG1, lambda, V domains shown)
VH: B1 VH
VL: B1 VL
modifications: toxophore-linker on Cys sulfur, sites not given
B10: Example 280 (antibody, human IgG1, kappa, V domains shown)
VH: QVELVESGGGLVQPGGSLRLSCAASGFTFSSYGMSWVRQAPGKGLEWVSGISSLGSTTYYADSVKGRFTISRDNSKNTLYLQMNSLRAEDTAVYYCARTGSPGTFMHGDHWGQGTLVTVSS
VL: DIQMTQSPSSLSASVGDRVTITCRASQDINNYLSWYQQKPGKAPKLLIYGASNLQSGVPSRFSGSGSGTDFTLTISSLQPEDFAVYYCQQYYGRPTTFGQGTKVEIKR
modifications: linker-toxophore on cysteine S
B11: Example 283 (antibody, human IgG1, kappa, V domains shown)
VH: B10 VH
VL: B10 VL
modifications: linker-toxophore on cysteine S
B12: Example 327 (antibody, human IgG1, kappa, V domains shown)
VH: B10 VH
VL: B10 VL
modifications: linker-toxophore on cysteine S
B13: Example 324 (antibody, human IgG1, kappa, V domains shown)
VH: B10 VH
VL: B10 VL
modifications: linker-toxophore on cysteine S
B14: Example 296 (antibody, human IgG1, kappa, V domains shown)
VH: B10 VH
VL: B10 VL
modifications: linker-toxophore on cysteine S
B15: Example 290 (antibody, human IgG1, kappa, V domains shown)
VH: B10 VH
VL: B10 VL
modifications: linker-toxophore on lysine NH
B16: Example 287 (antibody, human IgG1, kappa, V domains shown)
VH: B10 VH
VL: B10 VL
modifications: linker-toxophore on cysteine S
B17: Example 285 (antibody, human IgG1, kappa, V domains shown)
VH: B10 VH
VL: B10 VL
modifications: linker-toxophore on cysteine S
B18: Example 292 (antibody, human IgG1, kappa, V domains shown)
VH: B10 VH
VL: B10 VL
modifications: linker-toxophore on cysteine S
B19: Example 291 (antibody, human IgG1, kappa, V domains shown)
VH: B10 VH
VL: B10 VL
modifications: linker-toxophore on cysteine S
B20: Example 325 (antibody, human IgG1, kappa, V domains shown)
VH: B10 VH
VL: B10 VL
modifications: linker-toxophore on cysteine S
B21: Example 322 (antibody, human IgG1, kappa, V domains shown)
VH: B10 VH
VL: B10 VL
modifications: linker-toxophore on lysine NH
B22: Example 314 (antibody, human IgG1, kappa, V domains shown)
VH: B10 VH
VL: B10 VL
modifications: linker-toxophore on lysine NH
B23: Example 313 (antibody, human IgG1, kappa, V domains shown)
VH: B10 VH
VL: B10 VL
modifications: linker-toxophore on cysteine S
B24: Example 297 (antibody, human IgG1, kappa, V domains shown)
VH: B10 VH
VL: B10 VL
modifications: linker-toxophore on cysteine S
B25: Example 289 (antibody, human IgG1, kappa, V domains shown)
VH: B10 VH
VL: B10 VL
modifications: linker-toxophore on cysteine S
B26: Example 282 (antibody, human IgG1, kappa, V domains shown)
VH: B10 VH
VL: B10 VL
modifications: linker-toxophore on cysteine S
B27: Example 293 (antibody, human IgG1, kappa, V domains shown)
VH: B10 VH
VL: B10 VL
modifications: linker-toxophore on cysteine S
B28: Example 294 (antibody, human IgG1, kappa, V domains shown)
VH: B10 VH
VL: B10 VL
modifications: linker-toxophore on cysteine S
B29: Example 323 (antibody, human IgG1, kappa, V domains shown)
VH: B10 VH
VL: B10 VL
modifications: linker-toxophore on lysine NH
B30: Example 326 (antibody, human IgG1, kappa, V domains shown)
VH: B10 VH
VL: B10 VL
modifications: linker-toxophore on lysine NH
B31: Example 288 (antibody, human IgG1, kappa, V domains shown)
VH: B10 VH
VL: B10 VL
modifications: linker-toxophore on cysteine S
B32: Example 295 (antibody, human IgG1, kappa, V domains shown)
VH: B10 VH
VL: B10 VL
modifications: linker-toxophore on cysteine S
B33: Example 284 (antibody, human IgG1, kappa, V domains shown)
VH: B10 VH
VL: B10 VL
modifications: linker-toxophore on cysteine S
B34: Example 315 (antibody, human IgG1, kappa, V domains shown)
VH: B10 VH
VL: B10 VL
modifications: linker-toxophore on cysteine S
B35: Example 321 (antibody, human IgG1, kappa, V domains shown)
VH: B10 VH
VL: B10 VL
modifications: linker-toxophore on cysteine S
B36: Example 281 (antibody, human IgG1, kappa, V domains shown)
VH: B10 VH
VL: B10 VL
modifications: linker-toxophore on cysteine S
B37: Example 286 (antibody, human IgG1, kappa, V domains shown)
VH: B10 VH
VL: B10 VL
modifications: linker-toxophore on cysteine S
B38: Example 320 (antibody, human IgG1, kappa, V domains shown)
VH: B10 VH
VL: B10 VL
modifications: linker-toxophore on cysteine S

Several values for one entry are separate records, joined by “and”; a condition that tells them apart may be missing. Identical values can stand only once.

One test addresses Mesothelin (SwissProt reference Q13421-3) (Homo sapiens, UniProt Q13421 37-622). Put plainly: cell-based or functional assay.
Consider B1, for which the “IC50 (nM), HT29 meso+ cells, MTT proliferation assay” value (“IC50 (nM), HT29 meso+ cells” below) came out at 177 nM.
On to B2, for which the “IC50 (nM), HT29 meso+ cells” value worked out at 1.6 nM.
Same read-out and setting: the result for B3 reads 0.06 nM.
For B4, the “IC50 (nM), HT29 meso+ cells” value turned out to be 3.1 nM.
Same read-out and setting: to B5 belongs 15 nM; to B6, 7 nM; to B7, 0.02 nM.
With B8, the “IC50 (nM), HT29 meso+ cells” value amounted to 0.04 nM.
Take B9: the “IC50 (nM), HT29 meso+ cells” value was 1.3 nM.

The target of a further test is T1, Carboanhydrase IX (Homo sapiens, UniProt Q16790 38-459). Put plainly: cell-based or functional assay.
For B10, the “MIAPaCa 2/CA9+ IC50” value worked out at 0.4 nM.
As to B11, the “MIAPaCa 2/CA9+ IC50” value is 0.4 nM.
Same read-out and setting: the result for B12 reads 19 nM; that for B13, 11 nM; that for B14, 0.6 nM.
On the same count and under the same terms, the result for B15 reads 1.9 nM.
Same read-out and setting: the result for B16 reads 69 nM.
As to B17, the “MIAPaCa 2/CA9+ IC50” value is 0.6 nM.
On the same count and under the same terms, the result for B18 reads 35 nM; that for B19, 22 nM.
Same read-out and setting: the result for B20 reads 137 nM; that for B21, 172 nM.
On to B22, for which the “MIAPaCa 2/CA9+ IC50” value was 150 nM.
Turning to B23, the “MIAPaCa 2/CA9+ IC50” value was determined as 3.8 nM.
As for B24, the “MIAPaCa 2/CA9+ IC50” value was determined as 0.02 nM.
In the case of B25, the “MIAPaCa 2/CA9+ IC50” value was 78 nM.
Still for that read-out and setting: the result for B26 reads 0.05 nM; that for B27, less than 0.1 nM; that for B28, 1 nM.
As for B29, the “MIAPaCa 2/CA9+ IC50” value was 238 nM.
On the same count and under the same terms, the result for B30 reads 2 nM; that for B31, 12 nM.
On the same count and under the same terms, the result for B32 reads 25 nM; that for B33, 0.9 nM; that for B34, 3.2 nM.
Same read-out and setting: the result for B35 reads 220 nM; that for B36, 1.2 nM.
As for B37, the “MIAPaCa 2/CA9+ IC50” value was determined as 0.8 nM.
For B38, the “MIAPaCa 2/CA9+ IC50” value was 19 nM.

In another test the target is T1, Carboanhydrase IX. Put plainly: cell-based or functional assay. This is another data set of the same source.
With B10, the “EC50 (nM) HT29” value worked out at 2.9 nM.
Still for that read-out and setting: to B11 belongs 0.3 nM; to B14, 0.4 nM.
For the molecule B15, the “EC50 (nM) HT29” value worked out at 115 nM and the “EC50 (nM) SNU-5” value is 84 nM.
Consider B16, for which the “EC50 (nM) HT29” value is greater than 30 nM.
Same read-out and setting: to B17 belongs 0.5 nM; to B18, 223 nM; to B19, 27 nM.
Regarding B24, the “EC50 (nM) HT29” value is less than 0.01 nM.
For B25, the “EC50 (nM) HT29” value was found to be 49 nM.
For the molecule B26, the “EC50 (nM) HT29” value is less than 0.01 nM.
On the same count and under the same terms, the result for B27 reads 0.1 nM.
Regarding B28, the “EC50 (nM) HT29” value was 13.6 nM and the “EC50 (nM) SNU-5” value came to 21.4 nM.
Turning to B31, the “EC50 (nM) HT29” value was 39 nM.
With B32, the “EC50 (nM) HT29” value is greater than 100 nM and the “EC50 (nM) SNU-5” value came out at 63 nM.
As for B33, the “EC50 (nM) HT29” value is 0.7 nM and 1.6 nM; the “EC50 (nM) SNU-5” value was 3 nM and 2.2 nM.
B36: the “EC50 (nM) HT29” value came to 1.7 nM.
On the same count and under the same terms, to B37 belongs 0.03 nM.
